# Article PMC2064523 (The Journal of Cell Biology, 2006)
# T1: Vh1 domain of human vinculin (residues 1–258) (human, UniProt P18206 1-258)
# T1 sequence (looked up): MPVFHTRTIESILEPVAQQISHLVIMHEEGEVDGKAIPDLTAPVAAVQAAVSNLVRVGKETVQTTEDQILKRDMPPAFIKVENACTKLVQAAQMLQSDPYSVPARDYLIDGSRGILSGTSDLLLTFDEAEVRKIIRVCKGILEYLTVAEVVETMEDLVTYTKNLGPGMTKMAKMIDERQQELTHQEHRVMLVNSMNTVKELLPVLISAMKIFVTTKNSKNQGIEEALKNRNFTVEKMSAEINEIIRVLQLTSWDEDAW
# B1: Vt domain of human vinculin (residues 879–1,066) (domain or fragment, UniProt P18206-2 879-1066, looked up)
# chain: EEKDEEFPEQKAGEVINQPMMMAARQLHDEARKWSSKGNDIIAAAKRMALLMAEMSRLVRGGSGTKRALIQCAKDIAKASDEVTRLAKEVAKQCTDKRIRTNLLQVCERIPTISTQLKILSTVKATMLGRTNISDEESEQATEMLVHNAQNLMQSVKETVREAEAASIKIRTDAGFTLRWVRKTPWYQ
# Columns and labels:
# [1] = target: Vh1 domain of human vinculin (residues 1–258) (human) (UniProt P18206); assay: SPR
# [2] = target: Vh1 domain of human vinculin (residues 1–258) (human) (UniProt P18206); assay: native gel or EMSA
# [3] = target: Human full-length vinculin (residues 1–1,066) (human) (UniProt P18206); assay: SPR
# [4] = target: T1, Vh1 domain of human vinculin (residues …); assay: SPR
# [5] = target: T1, Vh1 domain of human vinculin (residues …); assay: native gel or EMSA
# [6] = target: T1, Vh1 domain of human vinculin (residues …); assay: crystal structure
molecule,measurement,setting,value
IpaA-VBS2-Y567I peptide,Kd,[1],15000 pM
"IpaA-Cterm (C-terminal domain of IpaA, residues 559–633) (from UniProt P18010 559-633) (domain or fragment)",stoichiometry N,[2],1
same,Kd,[1],0.0062 pM
same,Kd,[3],35.2 pM
"NIYKAAKDVTTSLSKVLKNINKD (peptide, UniProt P18010 611-633, looked up) [IpaA-VBS peptide (IpaA residues 611–633)]",Kd,[4],110 pM
NIIKAAKDVTTSLSKVLKNINKD [IpaA-VBS-Y613I peptide],Kd,[4],270 pM
"AIYEKAKEVSSALSKVLSKIDDT (peptide, UniProt P18010 565-587, looked up) [IpaA-VBS2 peptide (IpaA residues 565–587)]",Kd,[4],6610 pM
AIYEAAKEVSSALSKVLSKIDDT [IpaA-VBS2-K569A peptide],Kd,[4],530 pM
B1,binding result,[5],binds
"NNDITAENNNIYKAAKDVTTSLSKVLKNINKD (peptide, UniProt P18010 602-633, looked up) [IpaA residues 602–633 (containing the IpaA-VBS), peptide of the crystal structure]",binding result,[6],binds
